Test results: patent US20210130452A1 (Merck KGaA, published 2021)

Columns and labels:
human IL-17A [1] = target: T1, human IL-17A (human, UniProt Q16552 24-155); assay: cell-based or functional assay
T1 sequence (Q16552 other isoform, or with tags, fused parts or gaps): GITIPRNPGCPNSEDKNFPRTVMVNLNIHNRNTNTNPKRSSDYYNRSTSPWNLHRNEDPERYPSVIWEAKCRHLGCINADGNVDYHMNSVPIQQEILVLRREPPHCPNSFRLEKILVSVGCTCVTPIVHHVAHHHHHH

human IL-17F [2] = target: T2, human IL-17F (human, UniProt Q96PD4 31-163); assay: cell-based or functional assay
T2 sequence: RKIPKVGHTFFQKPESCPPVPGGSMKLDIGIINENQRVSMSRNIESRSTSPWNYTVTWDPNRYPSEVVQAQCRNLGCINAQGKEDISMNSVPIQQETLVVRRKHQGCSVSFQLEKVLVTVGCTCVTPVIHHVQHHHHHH

human IL-17F [3] = target: T2, human IL-17F; assay: KinExA, 100 pM Nanobody
Experimental: The affinity of a limited set of formatted Nanobodies was determined using the KinExA.

human IL-17A [4] = target: T1, human IL-17A; assay: competition ELISA IL17A-RA
Experimental: To this end, IL-17RA, respectively IL-17RC was coated at a concentration of 1 μg/ml in PBS.

human IL-17A [5] = target: T3, human IL-17A (human, UniProt Q16552 24-155); assay: SPR (Biacore) off-rate
T3 construct: secreted form made in Hek293 cells (GenBank U32659); also called hIL-17A; hIL17A
T3 sequence (Q16552 other isoform, or with tags, fused parts or gaps): as the sequence (Q16552 other isoform, or with tags, fused parts or gaps) above

[6] = target: T4, human IL-17A/F heterodimer (human, UniProt Q16552 24-155; Q96PD4 31-163, limits assumed); assay: SPR (Biacore) off-rate
T4 construct: bought, made in E. coli (R&D Systems 5194-IL/CF); also called hIL-17A/F; hIL17A/F
T4 sequence (Q16552 24-155 limits assumed, one chain of several): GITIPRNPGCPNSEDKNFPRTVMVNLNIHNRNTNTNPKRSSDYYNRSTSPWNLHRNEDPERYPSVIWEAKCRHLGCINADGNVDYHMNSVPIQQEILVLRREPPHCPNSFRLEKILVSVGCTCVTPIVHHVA

Cynomolgus monkey IL-17A = target: T5, Cynomolgus monkey IL-17A (Cynomolgus monkey, UniProt A0A2K5TTB0 24-155); assay: SPR (Biacore) off-rate
T5 construct: also called cyno IL-17A; cIL-17A
T5 sequence (A0A2K5TTB0 entry or part of it): as the sequence (Q16552 24-155 limits assumed, one chain of several) above, with T3A, P8S, N34S, I77V, N78K, P104R counted along it

human IL-17A [7] = target: T3, human IL-17A; assay: cell-based or functional assay; remark: listed apart in the source
[8] = target: T4, human IL-17A/F heterodimer; assay: cell-based or functional assay
human IL-17A [9] = target: T3, human IL-17A; assay: competition ELISA IL-17A-IL-17RA
human IL-17A [10] = target: T3, human IL-17A; assay: AlphaScreen IL-17A-IL-17RA (average)
human IL-17A [11] = target: T3, human IL-17A; assay: AlphaScreen hIL-17A-IL-17RA; vs IL17MS13B03
human IL-17F [12] = target: T6, human IL-17F (human, UniProt Q96PD4 31-163); assay: AlphaScreen hIL-17F-IL-17RC; vs IL17MS13B03
T6 construct: made in Hek293 cells (GenBank AF384857); also called hIL-17F; hIL17F
T6 sequence: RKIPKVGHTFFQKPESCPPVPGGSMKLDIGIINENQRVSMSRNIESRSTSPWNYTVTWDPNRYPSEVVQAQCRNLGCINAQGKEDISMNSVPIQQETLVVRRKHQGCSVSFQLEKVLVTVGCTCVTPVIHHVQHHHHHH

B1: SH-Fc-(GS)2-13B03 (Fc fusion, not shown: a dimerising Fc or GST; small tags and cut ends)
chain: EVQLVESGGGSVQAGDSLRLSCAASGRANSINWFGWFRQTPGKEREFVAGIRWSDAYTEYANSVKGRFTISRDNAKNTVDLQMDSLKPEDTAVYYCVLDLSTVRYWGQGTQVTVSS
notes: also called MSB0010618; SH-(GS)2-Fc-13B03
Emax, hIL-17A induced IL-6, HT-1080, without HSA (human IL-17A [1]): 100% | IC50, hIL-17A induced IL-6, HT-1080, without HSA (human IL-17A [1]): 0.37 nM | IC50, hIL-17F induced IL-6, HT-1080, without HSA (human IL-17F [2]): 5.7 nM | Kd (human IL-17F [3]): 0.145 nM | IC50 (human IL-17A [4]): 0.044 nM

B2: IL17MS3060 (VHH)
VHH: DVQLVESGGGLVQPGGSLRLSCTASGTIVNIHVMGWYRQAPGKQRELVALIFSGGSADYADSVKGRFTISRDNSKNTVYLQMNSLRPEDTAVYYCAAEIGYYSGGTYYSSEAHWGQGTLVTVSS
notes: variant of IL17MS04G01; basic = A14P, A74S, E81Q, K83R, Q108L
koff (human IL-17A [5]): 0.00015 s⁻¹ | koff [6]: 0.000209 s⁻¹ | koff (Cynomolgus monkey IL-17A): 0.000154 s⁻¹ | IC50 cell based assay hIL-17A (IL-6, HT-1080 cells) (human IL-17A [7]): 0.93 nM | IC50 cell based assay hIL-17A/F (IL-6, HT-1080 cells) [8]: 5.5 nM | IC50 (human IL-17A [9]): 0.181 nM | IC50 (human IL-17A [10]): 0.081 nM

B3: IL17MS04G01 (VHH)
VHH: EVQLVESGGGLVQAGGSQRLSCTASGTIVNIHVMGWYRQAPGKQRELVALIFSGGSADYADSVKGRFTISRDNAKNTVYLEMNSLKAEDTAVYYCAAEIGYYSGGTYYSSEAHWGQGTQVTVSS
notes: Class 2 Nanobody, wild type; also called WT
koff (human IL-17A [5]): 0.000116 s⁻¹ | koff [6]: 0.00017 to 0.00023 s⁻¹ | koff (Cynomolgus monkey IL-17A): 0.00032 s⁻¹ | IC50 cell based assay hIL-17A (IL-6, HT-1080 cells) (human IL-17A [7]): 0.71 nM | IC50 cell based assay hIL-17A/F (IL-6, HT-1080 cells) [8]: 7.55 nM | IC50 (human IL-17A [9]): 0.122 nM | IC50 (human IL-17A [10]): 0.093 nM

B4: IL17MS3068 (VHH)
VHH: EVQLVESGGGLVQPGGSLRLSCAASGRASSINWMGWFRQAPGKEREFVAGIRWSDAYTEYADSVKGRFTISRDNSKNTVYLQMNSLRPEDTAVYYCVLDLSTVRYWGQGTLVTVSS
notes: variant of IL17MS13B03; Kabat numbering
IC50 fold difference compared to WT (human IL-17A [11]): 1.2 fold | IC50 fold difference compared to WT (human IL-17F [12]): 0.2 fold
